Source: publication PMC12781075, “Crosstalk between arachidonic acid metabolism and glycolysis drives integrated metabolic-inflammatory reprogramming in macrophages” (International Journal of Biological Sciences, 2026)
Several values for one entry are separate records, joined by “and”; a condition that tells them apart may be missing. Equal entries are not always repeated.

Target: pyruvate kinase M2 (mouse (endogenous in RAW264.7)) (UniProt P52480)
Assay: cross-linking; RAW264.7 macrophages treated with 15KPF, lysed, lysate incubated with 2.5 mM disuccinimidyl suberate for 30 min; 10% SDS-PAGE and PKM2 immunoblot

pyruvate kinase M2, P52480 1-531 (enzyme; other documents disagree on this pair), sequence (P52480 whole entry): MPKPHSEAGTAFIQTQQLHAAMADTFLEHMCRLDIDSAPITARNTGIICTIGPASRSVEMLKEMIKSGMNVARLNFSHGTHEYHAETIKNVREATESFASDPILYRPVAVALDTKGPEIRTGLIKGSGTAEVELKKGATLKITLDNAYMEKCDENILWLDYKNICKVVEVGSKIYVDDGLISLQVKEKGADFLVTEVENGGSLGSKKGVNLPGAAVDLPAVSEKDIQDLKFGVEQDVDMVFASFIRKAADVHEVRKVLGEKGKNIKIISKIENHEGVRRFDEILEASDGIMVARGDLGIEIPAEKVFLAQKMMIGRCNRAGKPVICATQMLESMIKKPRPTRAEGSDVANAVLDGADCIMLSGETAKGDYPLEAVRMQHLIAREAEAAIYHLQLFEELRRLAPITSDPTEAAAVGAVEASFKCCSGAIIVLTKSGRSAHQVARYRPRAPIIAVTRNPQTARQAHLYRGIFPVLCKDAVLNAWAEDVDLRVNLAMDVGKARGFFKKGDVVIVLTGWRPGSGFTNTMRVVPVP

pyruvate kinase M2, P52480 1-531 (enzyme; other documents disagree on this pair)
stoichiometry N: 4 and 2
